B1: His-MBP-RGNEF^1–275 (domain or fragment, human, UniProt Q8N1W1 1-275, looked up)
chain: MELSCSEAPLYGQMMIYAKFDKNVYLPEDAEFYFTYDGSHQRHVMIAERIEDNVLQSSVPGHGLQETVTVSVCLCSEGYSPVTMGSGSVTYVDNMACRLARLLVTQANRLTACSHQTLLTPFALTAGALPALDEELVLALTHLELPLEWTVLGSSSLEVSSHRESLLHLAMRWGLAKLSQFFLCLPGGVQALALPNEEGATPLDLALREGHSKLVEDVTNFQGRWSPSFSRVQLSEEASLHYIHSSETLTLTLNHTAEHLLEADIKLFRKYFWDR
notes: Detailed purification protocol is in the Supplementary Methods; also called His-NF242; NF242 (in the SPR experiments); source: E. coli, purified (Ni-IMAC); not shown: MBP, N-terminal, kept
B2: His-RRM-1 (domain or fragment, human, UniProt Q13148 101-191, looked up)
chain: QKTSDLIVLGLPWKTTEQDLKEYFSTFGEVLMVQVKKDLKTGHSKGFGFVRFTEYETQVKVMSQRHMIDGRWCDCKLPNSKQSQDEPLRSR
notes: source: E. coli, purified (Ni-IMAC)

What was measured:
His-MBP-RGNEF^1–275 = biological target: B1; assay: SPR; His-MBP-RGNEF^1–275 amine-coupled on a carboxymethyl dextran chip; TDP-43 fragments as analytes; 1× PBS, 0.1% Tween-20; 22°C
His-TDP-43 1-269 [1] = biological target: T1, His-TDP-43 1-269 (human, UniProt Q13148 1-269); assay: SPR; competition: 3′-biotinylated RNA oligo on a neutravidin chip; 100 nM His-TDP-43^1–269 pre-incubated 30 min at room temperature with 1 or 10 μM His-MBP-RGNEF^1–275, then injected; 10 mM Tris pH 8.0, 150 mM NaCl, 2 mM MgCl2, 0.05% Tween-20, 1 μM BSA
His-GST-TDP-43^wt = biological target: T2, His-GST-TDP-43^wt (human, UniProt Q13148 1-414); assay: SPR; His-MBP-RGNEF^1–275 amine-coupled on a carboxymethyl dextran chip (2000 to 8000 µRIU); His-GST-TDP-43^wt as analyte; 20 mM HEPES pH 7.5, 50 mM KCl, 0.5 mM MgCl2, 50 mM NaCl, 0.05% Tween-20; 22°C; conditions: both partners purified
T2 construct: also called full-length wild-type TDP-43 with an N-terminal GST fusion; source: E. coli, purified (Ni-IMAC); not shown: GST, N-terminal, kept

His-TDP-43 1-269 [2] = biological target: T1, His-TDP-43 1-269; assay: SPR; 100 nM TDP-43 1-269, no NF242; 10 mM Tris pH 8.0, 150 mM NaCl, 2 mM MgCl2, 0.05% Tween-20, 1 uM BSA; 30 min pre-incubation at room temperature; SPR at 22 C (stated for the protein-protein SPR); 80 RIU RNA immobilized; conditions: protein: recombinant; tags: N-terminal 6xHis (pQE30); label: 3' biotin
Target sequence in this assay (Q13148 1-269): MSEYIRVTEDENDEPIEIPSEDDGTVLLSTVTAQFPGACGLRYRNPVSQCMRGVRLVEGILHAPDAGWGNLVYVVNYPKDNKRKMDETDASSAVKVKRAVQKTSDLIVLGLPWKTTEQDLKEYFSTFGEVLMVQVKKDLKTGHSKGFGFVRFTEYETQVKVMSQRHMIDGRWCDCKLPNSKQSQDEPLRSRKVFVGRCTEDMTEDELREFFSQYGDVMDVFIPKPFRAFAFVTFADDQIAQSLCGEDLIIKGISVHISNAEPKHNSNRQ

T2 sequence (Q13148 whole entry, the tested form may be a part): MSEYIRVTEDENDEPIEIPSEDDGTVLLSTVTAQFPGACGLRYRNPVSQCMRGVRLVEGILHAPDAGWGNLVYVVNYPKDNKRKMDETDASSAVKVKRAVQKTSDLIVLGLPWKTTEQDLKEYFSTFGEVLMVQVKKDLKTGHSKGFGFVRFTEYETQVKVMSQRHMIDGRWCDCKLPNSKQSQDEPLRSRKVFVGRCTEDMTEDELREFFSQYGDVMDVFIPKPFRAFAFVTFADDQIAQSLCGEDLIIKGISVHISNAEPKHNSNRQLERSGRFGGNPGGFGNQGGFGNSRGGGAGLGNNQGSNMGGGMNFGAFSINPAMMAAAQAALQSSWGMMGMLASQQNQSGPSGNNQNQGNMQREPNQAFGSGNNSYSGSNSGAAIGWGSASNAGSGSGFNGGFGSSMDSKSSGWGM

His-TDP-43^1–269 (from UniProt Q13148 1-269) (domain or fragment)
Kd (His-MBP-RGNEF^1–275): 4110 nM

B1
percent reduction of the signal of TDP-43 on the RNA chip at 1 μM NF242 (His-TDP-43 1-269 [1]): 10% | percent reduction of the signal of TDP-43 on the RNA chip at 10 μM NF242 (His-TDP-43 1-269 [1]): 50% | Kd (His-GST-TDP-43^wt): 1780 nM

B2
binding result (His-MBP-RGNEF^1–275; both partners purified): binds

GUGUGUGAAUGAAUAAA (ssRNA) [3'-biotinylated RNA oligo]
binding result (His-TDP-43 1-269 [2]): binds

Source: publication PMC11146434, “Mitigation of TDP-43 toxic phenotype by an RGNEF fragment in amyotrophic lateral sclerosis models” (Brain, 2023)
